Patent publication US20180031579A1

Biological target: Growth differentiation factor 11 (GDF11) (human) (UniProt O95390)
Assay: cell-based or functional assay

UniProt O95390, sequence (O95390 299-407 limits assumed): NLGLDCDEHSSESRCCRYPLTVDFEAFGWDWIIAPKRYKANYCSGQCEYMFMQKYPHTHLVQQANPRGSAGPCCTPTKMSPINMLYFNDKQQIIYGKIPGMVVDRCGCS

apoptosis in primary AML blasts, subjects 5 and 6: 50 % apoptosis
Substance: anti-human GDF11 antibody ab71347 (Abcam)
